Test results taken from patent US20190307907A1, “MOLECULAR SENSOR FOR NMR/MRI BASED ON ANALYTE-DEPENDENT SPECTRAL CHANGES OF TEMPORARILY ENCAPSULATED HYPERPOLARIZED 129XE” (KLINIKUM RECHTS DER ISAR DER TECHNISCHEN UNIVERSITÄT MÜNCHEN, priority 2016, published 2019).
Where no end group is shown, it is not given here. Cr‑A = cryptophane A cage on the Lys side chain; 5‑Fluo‑M = fluorescein maleimide

Tests used:
calmodulin [1] = biological target: T1, calmodulin (Homo sapiens, UniProt P0DP23); test: Hyper-CEST spectra of cryptophane-conjugated peptides with calmodulin in absence and presence of calcium (FIG. 5); assay type: biochemical; details: peptide 1 μM, calmodulin 3 μM, MOPS; for Ca2+-dependent CEST unsuppression / signal change on calmodulin binding: calcium up to 100 μM; for CEST suppression (baseline, absence of calcium): no calcium, hyperpolarized 129Xe, 9.4 T
Procedure: Hyperpolarized Xenon was bubbled into buffered (MOPS) solutions containing different cryptophane bearing peptides indicated in the respective subfigures (1 μM) and calmodulin (3 μM) in the absence and presence of 100 μM calcium and CEST spectra were obtained on a 9.4 T Bruker AV 400 wide bore NMR spectrometer. (E) Effects of C-terminal portion of RS20 on the NMR-signal modulation. Replacement of the maleimide-Fluorescein by a maleimide capping group (NEM) partially unsuppresses the CEST effect.
However, the CEST suppression and Ca^2+-mediated unsuppression is weaker if the cryptophane cage is attached at the third lysine (@K3, FIG. 5B). […] (FIG. 5C).
(§1) The production, delivery and application of hyperpolarized Xe for NMR and MRI studies has been described previously including a full list of materials (Witte et al., 2012; Witte et al., 2014). Typically, hyperpolarized ^129Xe (20% polarization and more) is generated by spin exchange optical pumping using a 150 W continuous wave laser (795 nm, 0.5 nm bandwidth) in a custom-designed continuous flow setup at 4.5 bar absolute pressure using a gas mixture of 5% Xe (26.4% natural abundance of ^129Xe), 10% N2, and 85% He.
Experiments benefit from high field MRI scanners because of the increased spectral resolution for resolving the CEST response. As an example, a 9.4 T NMR spectrometer can be used for the NMR experiments. It requires gradient coils for MR imaging and a variable temperature unit for adjusting the sample temperature. A 10 mm inner-diameter double resonant probe (^129Xe (110 MHz) and ^iH (400 MHz)), can be used for excitation and detection.
The freshly hyperpolarized xenon gas mix is directly bubbled into solution for ca. 15 seconds at a total flow rate of 0.1 SLM followed by a 1 s delay (to allow possible remaining bubbles to collapse) before signal acquisition. To reduce foaming, 0.1% of Pluronic® L81 may be added to the sample. After bubbling, a saturation RF pulse is irradiated at the desired frequency and the signal of free Xe in solution is observed. ^129Xe Hyper-CEST MR images can be acquired using averages of a RARE sequence with a slice-selective 90° gaussian shaped excitation pulse and high RARE factor (up to 32 for a 32×32 matrix size) due to sufficiently slow T2 relaxation. Two images are acquired, one with an off-resonant saturation pulse for control and one with an on-resonant saturation pulse to induce signal loss in the vicinity of the sensor. Hyper-CEST MR images are obtained by a pixel-wise subtraction of the noise corrected off- and on-resonant images. All data analysis was performed with MATLAB®.

calmodulin [2] = biological target: T1, calmodulin; test: Hyper-CEST calcium titration, binding curves of cryptophane-peptide sensors with calmodulin; details: from CEST binding curves; 2 μM calmodulin; free calcium 0 to 39 μM; MOPS buffer; read-out: apparent dissociation constant
Procedure: (A) CEST spectra from M13 with a cryptophane Cage and also harboring a fluorescein (G-K(Cr-A)-[…]-C(5-Fluo-M)-amid) where Cr-A denotes the cryptophane A cage attached on the lysine residue and 5-Fluo-M a fluorescein attached to a cysteine) in the presence of 2 μM calmodulin and in response to free calcium concentrations ranging from 0 to 39 μM (MOPS buffer) (B) CEST spectra from RS20 (GRR-K(Cr-A)-WQKTGHAVRAIGRLSSS-C(5-Fluo-M)-amid; same annotation of modifications as in (A)) plotted analogously as in (A). (C) Corresponding binding curves yielding an apparent dissociation constant of 0.91 μM and 1 μM for M13 and RS20 respectively.
as §1
Experiments benefit from high field MRI scanners because of the increased spectral resolution for resolving the CEST response. As an example, a 9.4 T NMR spectrometer can be used for the NMR experiments. […]

[3] = Circular dichroism and CEST spectra at different trifluoroethanol (TFE) concentrations (FIG. 12); assay type: physicochemical; details: for CEST signal in TFE: 20% and 50% TFE; for CEST signal in TFE / CEST signal in water: without Ca2+ or CaM; for helicity of the peptide moiety (CD spectra): different concentrations of TFE
From the text: FIG. 12: Spectroscopic changes upon conformational change.

[4] = system: lysates obtained from HEK293 cells; test: Functionality of the sensor in cell lysates (FIG. 13); assay type: biochemical; details: for sensor response on addition of saturating calcium: HEK293 lysate with CaM, saturating amounts of calcium; for sensor response on addition of just CaM: HEK293 lysate, calcium already present in the lysate
Procedure: FIG. 13: Functionality of the sensor in cell lysates. The sensor M13-based sensor (blue) and RS20-based sensor (red) were added to lysates obtained from HEK293 cells.

HEK293 cells = test: Cellular uptake of cage-conjugated peptides, confocal microscopy and FACS (FIG. 8); assay type: cell-based; details: 25 μM, 20 minutes
Procedure: (A) Cage-conjugated peptides that were also labeled with fluorescein (25 μM) were incubated on HEK293 cells for 20 minutes followed by confocal microscopy imaging (nuclear counterstain with DAPI). (B) Analysis of FACS experiments with cells incubated with different peptides modified with cryptophane cages and fluorescein indicating labeling of the cells with the fluorescent peptides (sequences as indicated in FIG. 2; @K# indicates the lysine residue number used for conjugation of the cryptophane cage). […] The cellular uptake of similar EF-protein-binding peptides is likely due to their high scores on prediction tools for cell-penetration such as CPPpred or CellPPD.

| CEST suppression (baseline, absence of calcium) (calmodulin [1]) | Kd (calmodulin [2]) | Ca2+-dependent CEST unsuppression / signal change on calmodulin binding (calmodulin [1]; listed as @K3) | Ca2+-dependent CEST unsuppression / signal change on calmodulin binding (calmodulin [1]; listed as RS20-cage@K2) | CEST suppression (baseline, absence of calcium) (calmodulin [1]; listed as @K3) | CEST suppression (baseline, absence of calcium) (calmodulin [1]; listed as RS20-cage@K2) | Substance | Ca2+-dependent CEST unsuppression / signal change on calmodulin binding (calmodulin [1]; listed as cage-conjugated calcineurin) | CEST signal in TFE [3] | helicity of the peptide moiety (CD spectra) [3] | CEST signal in water [3] | sensor response on addition of saturating calcium [4] | sensor response on addition of just CaM [4] | Ca2+-dependent CEST unsuppression / signal change on calmodulin binding (calmodulin [1]) | cellular uptake (confocal microscopy) (HEK293 cells) |
| --- | --- | --- | --- | --- | --- | --- | --- | --- | --- | --- | --- | --- | --- | --- |
| neither show a suppression | – | – | – | – | – | ARKEVIRNKIRAIGK-CrytophaneCage-MARVFSVLR [calcineurin A peptide] | does not exhibit a change in the CEST effect | – | – | – | – | – | – | – |
| – | 0.91 µM | – | – | – | – | G-K(Cr-A)-RRWKKNFIAVSAANRFKKISSSGAL-C(5-Fluo-M)-amid (GKRRWKKNFIAVSAANRFKKISSSGALC; cryptophane A on Lys; fluorescein on Cys; amide; Cr-A@K1_M13_Fluorescein) | – | turned on | increase of the helicity | no CEST signal | stronger response | turned on the sensor | – | – |
| – | – | weaker | diminishes | weaker | diminishes the CEST suppression | GRRKWQK(Cr-A)-TGHAVRAIGRLSSS-C(5-Fluo-M)-amid (GRRKWQK(Cr‑A)TGHAVRAIGRLSSSC(5‑Fluo‑M)-NH2) [Cr-A@K3_RS20_Fluorescein, RS20 peptide with cryptophane A shifted three amino acids toward the center, C-terminal fluorescein] | – | – | – | – | – | – | – | – |
| complete CEST suppression | 1 µM | – | – | – | – | GRR-K(Cr-A)-WQKTGHAVRAIGRLSSS-C(5-Fluo-M)-amid (GRRK(Cr‑A)WQKTGHAVRAIGRLSSSC(5‑Fluo‑M)-NH2) [Cr-A@K1_RS20_Fluorescein] | – | turned on | increase of the helicity | no CEST signal | stronger response | turned on the sensor | strong, Ca^2+-dependent CEST unsuppression | uptake |
